Data as given in patent EP1593386A1 (Charité - Universitätsmedizin Berlin, dated 2005).

Target: T1, CD7 on human peripheral blood T lymphocytes (human, UniProt P09564 26-240)
T1 construct: whole, on cells
T1 sequence (looked up): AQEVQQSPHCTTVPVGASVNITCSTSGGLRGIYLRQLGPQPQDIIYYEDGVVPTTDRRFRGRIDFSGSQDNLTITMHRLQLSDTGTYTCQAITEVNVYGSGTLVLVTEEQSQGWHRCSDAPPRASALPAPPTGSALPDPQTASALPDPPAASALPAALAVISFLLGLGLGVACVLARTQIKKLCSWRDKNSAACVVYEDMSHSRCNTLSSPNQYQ
Assay: pull-down with galectin-2 coated tosyl-activated magnetic beads on PBT, immunoblot for CD7

B1: galectin-2 (ligand, UniProt P05162 1-132, looked up)
chain: MTGELEVKNMDMKPGSTLKITGSIADGTDGFVINLGQGTDKLNLHFNPRFSESTIVCNSLDGSNWGQEQREDHLCFSPGSEVKFTVTFESDKFKVKLPDGHELTFPNRLGHSHLSYLSVRGGFNMSSFKLKE
modifications: biotin-labelled (sites not given) in the flow cytometry assays; coupled to tosyl-activated magnetic beads in the co-immunoprecipitation
notes: also called Gal-2; biotin-labelled galectin-2
**Q.** Does B1 bind?
**A.** no binding
